{"source": "paper PMC4333385", "tested_on": "Nc1ncnc2c1ncn2[C@@H]1O[C@H](COP(=O)(O)OP(=O)(O)OP(=O)(O)O)[C@@H](O)[C@H]1O", "experiment": "steady-state Pi release, MDCC-PBP stopped-flow, Hill fit", "format": "biochemical, Escherichia coli", "conditions": "DNA-free RecQ, SF50 buffer pH 7.5, 5 mM MgCl2, 50 mM NaCl, 25 °C, Hill coefficient 1.3", "source_text": "steady-state Pi release, MDCC-PBP stopped-flow, Hill fit on E. coli RecQ helicase", "data": [{"substance": "E. coli RecQ helicase (Escherichia coli K-12)", "values": [{"measurement": "K0.5", "result": "28 ± 2", "unit": "µM"}, {"measurement": "kcat", "result": "0.53 ± 0.05", "unit": "s⁻¹"}]}]}
